Measurements published in the nanobody polyreactivity screen of Harvey et al. (2022).

assay: yeast display, Sf9 membrane polyspecificity reagent, FACS + sequencing; frameworks hold sequencing errors
Outline: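 Synthetic nanobody libraries on Saccharomyces cerevisiae BJ5465 were galactose-induced for 36–48 hours, stained 1 hour at 4 °C with 10% biotinylated, detergent-solubilized Sf9 membrane reagent and enriched on streptavidin microbeads. FACS then separated cells into low and high (top ~1%) gates by anti-HA (expression) and streptavidin (reagent binding) fluorescence. Genes were colony-PCR amplified, MiSeq 2 × 250 sequenced and CDR-length filtered. A clone's polyreactivity label is that of its gate of origin.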

Sequence | polyreactivity (PSR sort gate)
QVQLVESGGGLVQAGGSLRLSCAASGFIFKQNARGWYRQAPGKERELVAAISWTGGSTYYADSVQGRFTISRDNAKNTVYLQMNSLKPEDTAVFYCAARKYKSTGDRRGTMDYWGQGTQVTVSS | high polyreactivity
QVQLVESGGGLVQAGGSLRLSCAASGFIFKRYAMGWYRQAPGKERELVAAITLSGGDTYYADSVKGRFTISRDNAKNTVYLQMNSLKPEDTAVYYCNAPYIGENYYWGQGTQVTVSS | high polyreactivity
QVQLVESGGGLVQAGGSLRLSCAASGFIFKRYTMGWYRQAPGKERELVAAISANGGRTYYADSVKGRFTISRDNAKNTVYLQMNSLKPEDTAVYYCAATRWDYTLYGYDYWGQGTQVTVSS | high polyreactivity
QVQLVESGGGLVQAGGSLRLSCAASGFIFKSYAMGWYRQAPGKERELVAAISGRGGSTYYADSVKGRFTISRDNAKNTVYLQMNSLKPEDPAVYYCNVGPSTYYQYDYWGQGTQVTVSS | high polyreactivity
QVQLVESGGGLVQAGGSLRLSCAASGFIFKSYAMGWYRQAPGKERELVAAISGRGGSTYYADSVKGRFTISRDNAKNTVYLQMNSLKPEDTAVYYCNVVPSTYYQYDYWGQGTQVTVSS | high polyreactivity
QVQLVESGGGLVQAGGSLRLSCAASGFIFKVNAMGCYRQAPGKERELVAAISRRGGTTYYADSVKGRFTISRDNAKNTVYFQLNSLKPEDTAVYYCYRARSYGVTDKVAILADDYWGQGTQVTVSS | high polyreactivity
QVQLVESGGGLVQAGGSLRLSCAASGFIFKWNAMGWYRQAPGKERELVAAITSGGGTYYADSVKGRFTISRDNAKNTVYLQMNSLKPEDTAVYYCAGYGYWGQGTQVTVSS | high polyreactivity
QVQLVESGGGLVQAGGSLRLSCAASGFIFKYNAMGWYRQAPGKERELVAAISYRGTRTYYADSVKGRFTISRDNAKNTVYLQMNSLKPEDTAVYYCNAGLTYNHHPYDYWGQGTQVTVSS | high polyreactivity
QVQLVESGGGLVQAGGSLRLSCAASGFIFLGNAMGWYRQAPGKERELVAAISSGGSTYSDSVKGRFTISRDNAKHTVYLQMNSLKPEDTAVYYCAADSFIPPYDHWGQGTQVTVSS | low polyreactivity
QVQLVESGGGLVQAGGSLRLSCAASGFIFLGYAMGWYRQAPGNERELVAAISESSGTTSYADSVKGRFTISRDNAKNTVYLQMNSLKPEDNAVYYCAADSIGNYLLYDYWGQCTQVTVSS | low polyreactivity
QVQLVESGGGLVQAGGSLRLSCAASGFIFLLNAMGWYRQAPGKEREFVAAISWGGGSTYYADSVKGRFTISRDNAKNTVYLQMNSLKPEDTAVYYCAAKPGKTPLTGHRGPYDTGYGYWGQGTQVTVSS | low polyreactivity
QVQLVESGGGLVQAGGSLRLSCAASGFIFLQYPMGWYRQAPGKERDLVAAITSGGGTNYADSVKGRFTISRDNAKNTVYLQMNSLKPEDTAVYYCAARTWPWVLGATQDDYWGQGTQVTVSS | low polyreactivity
QVQLVESGGGLVQAGGSLRLSCAASGFIFLRYGMGWYRQAPGKARELVATISWSGDSTYADSVKGRFTISRDNAKNTLYLQMNSLKPEDTAVYYCATSGDWWGFRYDYWGQGTQVTVSS | low polyreactivity
QVQLVESGGGLVQAGGSLRLSCAASGFIFLTNAMGWYRQAPWKERELVAAITGGGITYYADSVKGRFTISLDNAKNTVYLQMNSLNPEDTAVYYCATDSLIFTIFDYWGQGSQVTVSS | low polyreactivity
QVQLVESGGGLVQAGGSLRLSCAASGFIFLVNAMGWYSGAPGKERELVAAISKSTGGTYYADSVKGRFTISRDNAKNTVYLQMNSLKPEDTAVYYCAADEVYPVQRDMDYWGQGTQVTVSS | low polyreactivity
QVQLVESGGGLVQAGGSLRLSCAASGFIFLYNAMGWDRQARGKERELVAAITSSGGTTYYADSVKGRFTISRDNAKNTVYLQINSLKPEDTAVYYCAARYTGRNGGSTTPEYDYWGQGTQVTVSS | low polyreactivity
QVQLVESGGGLVQAGGSLRLSCAASGFIFLYYAMGWYRQAPGKERELVAAISSSGGSTYYADSVKGRFTISRDNAKNTVYLQMNSLKPEDTAVYYCAARRKGKARVPQYDYWGQGTQVTVSS | high polyreactivity
QVQLVESGGGLVQAGGSLRLSCAASGFIFNHYRMGWYRPAPGKEREFVAAISWSGGSTYYADSVKGRFTISRDNAKNTVYLQMNSLKPEDTAVYYCAASYNGLWHGDYDYWGQGTQVTVSS | low polyreactivity
QVQLVESGGGLVQAGGSLRLSCAASGFIFNIYGMGWYRQAPGKERELVAAISRGGSTYYADSVKGRFTISRDNAKNTGYLQMNSLTPEDTAVYYCAAVGYTLEYEYWGQGTQVTVSS | low polyreactivity
QVQLVESGGGLVQAGGSLRLSCAASGFIFNLYAMGWYRQAPGKERELVAAISSGGGTSYADSVKGRFTISRDNAKNTVYLQMNSLKPEDTAVYYCAAGYKRRYYWKGYTRYDYWGQGTQVTVSS | high polyreactivity
QVQLVESGGGLVQAGGSLRLSCAASGFIFNRYAMGWYRQAPGKERELVADITGGSTYYADSVKGRFTISRDNAKNTVYLQMNSLKPEDTAVYYCAADVLRISTQLFRGPGFDSWGQGTQVTVSS | low polyreactivity

Sequence | polyreactivity (PSR sort gate)
QVQLVESGGGLVQAGGSLRLSCAASGFIFNVYAMGWYRQAPGKERELVAAISQRGGRTYYADSVKGRFTISRDNAKNTVYLQMNSLKPEDTAVYYCKLFYPKHGYWGQGTQVTVSS | high polyreactivity
QVQLVESGGGLVQAGGSLRLSCAASGFIFNYYLGWYRQAPGKEREWVAAISQSGDSTYYADSVKGRFTISRDNAKNTVYLQMNSQKPEDTAVYYCAAETSPDYRGVTYYYWGQGTQVTLSS | high polyreactivity
QVQLVESGGGLVQAGGSLRLSCAASGFIFPAYAMGWYRPAPGKERELVAAISKSGGRTYYADSVKGRFTISRDNAKNTVYIQMKSLKPEYTAVYYCDARMYNYDTSSSFDYWGQGTQVTVSS | high polyreactivity
QVQLVESGGGLVQAGGSLRLSCAASGFIFPIYAMGWYRQAPGKERELVAAITSNGASTYYADSVKGRFTISRDNAKNTVYLQMNSLKPEDTAVYYCARDPSIRALEHDYWGQGTKVTVSS | high polyreactivity
QVQLVESGGGLVQAGGSLRLSCAASGFIFPNNAMGWYRQAPGKERELVARISYGGGDTHYADSVKGRFTISRDTAKNTVYLQMNSLKPEDTAVYYCAVKDGQDDYWGQGTQVTVSS | low polyreactivity
QVQLVESGGGLVQAGGSLRLSCAASGFIFPRNVMGWYRQAPGKERELVAAISRSGGSTYYADSVKGRITISRDNAKNTVYLQMNSLKPEDTAVYYCDKRTFYNGEYWGQGTQVTVSS | high polyreactivity
QVQLVESGGGLVQAGGSLRLSCAASGFIFPRYAMGWYRQAPGKERELVAAISYTGGSTYYADSVKGRFTISRDNAKNTVSLQMNSLKPEDTAVYYCYAYFLSQYQRGYRDDYWGQGTQVTVSS | high polyreactivity
QVQLVESGGGLVQAGGSLRLSCAASGFIFPTNTMGWYRQAPGKEREFVARITRSGTNTYYADSVKGRFTISRDNAKNTVYLQMNSLKAEDTAVYYCARRGTSSYRRYWLDSASNMDYWGQGTQVTVSS | high polyreactivity
QVQLVESGGGLVQAGGSLRLSCAASGFIFPTYAMGWYRQAPGKERELVAAISYRGGITSYADSVKGRFTISRDNAKNTVYLQMNSLKPEDTAVYYCAARGAWGYEYWGQGTQVTVSS | low polyreactivity
QVQLVESGGGLVQAGGSLRLSCAASGFIFPVNAMGWSRQAPGKERELVAGITSSGGSTYYADSVKGRFTISRDNAKNTVYLQMNSRKPEDTAVYYCNAYIDALPVSYHFDYWGQGTQLTVSS | low polyreactivity
QVQLVESGGGLVQAGGSLRLSCAASGFIFPVYAMGWYRQAPGKERELVAAITDSGDSTYYADSVKGRFTISRDNAKNTVYLQMNSLKPEDTAVYYCAAQVQYPRWYRSGKYDYWGQGTQVTVSS | low polyreactivity
QVQLVESGGGLVQAGGSLRLSCAASGFIFPWYAMGWYRQAPGKERELVAAISWSGGSTYYADSVKWRFTISRDNAKNTVYLQMNSLKPEDTAVYYCNDLYGRPGYDYWGQGTQVTVSS | low polyreactivity
QVQLVESGGGLVQAGGSLRLSCAASGFIFPWYTRGWYRQAPGKERELVAVINQSGGSTYYADSVKGRFTISRDNAKNTVYLQMNSLKPEDTAVYYCAAKSYRGSVKLRWSERGYWGQGTQVTVSS | high polyreactivity
QVQLVESGGGLVQAGGSLRLSCAASGFIFPYYAMGLYRQAPGKERELVAAITFSATRTYYADSVKGRFTISRDNAKNTVYLQMNSLKPEDTAVYYCKARGGVYGSYFEFNYWRQGTQVTVSS | low polyreactivity
QVQLVESGGGLVQAGGSLRLSCAASGFIFPYYAMGWYRQAPGKEREFVAAITFSATRTYYADSVKGRFTISRDNAKNTVYLQMNSLKPEDTAVYYCNARGGVYGSYFEFNYWGQGTQVTVSS | low polyreactivity
QVQLVESGGGLVQAGGSLRLSCAASGFIFPYYDMGWYRQAPGKEREFVAAITKSGGRTYYADSVKGRFTISRDNAKNTVYLQMNSLKPEDTAVYYCNADDPDYLVSYRYDYWGQGTQVTVSS | low polyreactivity
QVQLVESGGGLVQAGGSLRLSCAASGFIFPYYDMGWYRQAPGTERELVAAISWSGDSTYYADSVKGRFTISRDNAKNTVYLQMNSLKPEDTAVYYCNVRARYQRYYYWGQGTQVTVSS | high polyreactivity
QVQLVESGGGLVQAGGSLRLSCAASGFIFQEYVMGWYRQAPGKERELVAAISRSGGRTYYADSVKGRFTISRDNAKNTVYLQMNSLKPEDTAVYYCAATYTKSHGVRYYHWGQGTQVTVSS | high polyreactivity
QVQLVESGGGLVQAGGSLRLSCAASGFIFQGYAMGWYRQAHGKEREFVAAITTSGGTTYYADSVKGSFTISRDNAKNTVYLQKNSLKPEDTAVYYCAARGATVSTRIYGYWGQGPQVTVSS | high polyreactivity
QVQLVESGGGLVQAGGSLRLSCAASGFIFQPYALGWYRQAPGKERELDASITLRGGSTYYADSVKGRFTISRDNAKNTVYLQMNSLKPEDTAVYYCAARIYQYWGGHYDYWGQGTQVTVSS | high polyreactivity
